Assay results from paper PMC6753080.

Tests used:
[1] = target: 6xHis-MBP-ERC1 fusion protein (mouse); assay: rotary shadowing electron microscopy; purified MBP-ERC1 diluted in spraying buffer (100 mM ammonium acetate, 30% glycerol), sprayed onto mica, platinum and carbon coated
[2] = target: 6xHis-MBP-ERC1 fusion protein (mouse); assay: static light scattering; purified ERC1 on a Viskotek TDAMax system; data averaged across the protein elution volume; protein purified in 20 mM HEPES pH 7.4, 250 mM NaCl, 0.5 mM TCEP
GFP-ERC1 (mouse) = assay: Numbers & Brightness; cytoplasm of living COS7 cells expressing GFP-ERC1; brightness compared with monomeric and dimeric GFP; confocal time series of 300 images

Sequence of GFP-ERC1 (Q99MI1 whole entry): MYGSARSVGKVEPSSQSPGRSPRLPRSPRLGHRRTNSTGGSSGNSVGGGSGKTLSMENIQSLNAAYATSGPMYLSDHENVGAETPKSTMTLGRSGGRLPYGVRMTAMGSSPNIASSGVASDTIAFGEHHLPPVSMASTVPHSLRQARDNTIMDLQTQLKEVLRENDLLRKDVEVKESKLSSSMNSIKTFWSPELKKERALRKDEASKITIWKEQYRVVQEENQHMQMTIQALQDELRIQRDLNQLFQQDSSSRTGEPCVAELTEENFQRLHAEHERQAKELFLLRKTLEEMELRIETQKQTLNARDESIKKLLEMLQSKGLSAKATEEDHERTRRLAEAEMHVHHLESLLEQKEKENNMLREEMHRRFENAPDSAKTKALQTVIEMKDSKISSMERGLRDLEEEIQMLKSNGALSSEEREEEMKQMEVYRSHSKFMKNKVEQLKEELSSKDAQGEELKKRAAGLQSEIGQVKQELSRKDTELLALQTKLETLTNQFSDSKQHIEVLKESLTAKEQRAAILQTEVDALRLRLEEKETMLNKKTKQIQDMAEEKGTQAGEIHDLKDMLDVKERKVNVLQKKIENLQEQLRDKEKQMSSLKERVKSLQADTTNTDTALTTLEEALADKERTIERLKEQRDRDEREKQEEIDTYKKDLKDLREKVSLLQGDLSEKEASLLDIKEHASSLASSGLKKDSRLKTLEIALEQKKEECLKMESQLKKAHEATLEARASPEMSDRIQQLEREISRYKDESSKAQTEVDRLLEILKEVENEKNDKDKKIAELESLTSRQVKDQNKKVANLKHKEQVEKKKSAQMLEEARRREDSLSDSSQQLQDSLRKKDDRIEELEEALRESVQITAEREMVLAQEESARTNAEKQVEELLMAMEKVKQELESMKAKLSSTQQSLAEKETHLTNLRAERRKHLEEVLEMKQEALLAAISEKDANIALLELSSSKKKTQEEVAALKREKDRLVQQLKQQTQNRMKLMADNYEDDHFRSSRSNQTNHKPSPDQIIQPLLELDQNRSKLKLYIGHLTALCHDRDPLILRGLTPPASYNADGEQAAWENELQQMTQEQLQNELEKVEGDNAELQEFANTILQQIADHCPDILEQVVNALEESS

stoichiometry N [1]	stoichiometry N [2]	brightness ratio to monomeric GFP (GFP-ERC1 (mouse))	stoichiometry N (GFP-ERC1 (mouse))	Substance
2	2			6xHis-MBP-ERC1 fusion protein (natural protein)
		2.1	2	GFP-ERC1 (natural protein)
